The text below walks through data of US20260265381A1 (Hoffmann-La Roche, published 2026).

For assay [1], the target named is T1, human CD3 expressed on cells (Jurkat NFAT reporter cells; human T cells isolated from PBMCs) (human, UniProt P07766 23-207).
T1 construct: on cells it is part of the CD3/TCR complex; also called CD3 on Jurkat cells; CD3 expressed on T-cells
Kind of assay: flow cytometry on Jurkat NFAT cells; IgG1 PGLALA format; detection with PE anti-human IgG Fc F(ab')2.

The target of assay [2] is T2, human HLA-G β2M MHC class I complex, wherein the HLA-G specific amino acids have been replaced by HLA-A … (human).
T2 construct: Recombinant single-chain peptide-MHC complex construct; also called HLA-A consensus on HLA-G frame; degrafted HLA-G
Kind of assay: SPR (Biacore T200, 25 C); antibody immobilized on CM3 chip, single-chain peptide-MHC as analyte.

For another assay, the target named is T3, rat RT1 (SEQ ID NO: 43) (rat).
T3 construct: Recombinant single-chain peptide-MHC complex construct (peptide, β2M, MHC class I molecule); also called rat RT1A β2M MHC class I complex
T3 chain: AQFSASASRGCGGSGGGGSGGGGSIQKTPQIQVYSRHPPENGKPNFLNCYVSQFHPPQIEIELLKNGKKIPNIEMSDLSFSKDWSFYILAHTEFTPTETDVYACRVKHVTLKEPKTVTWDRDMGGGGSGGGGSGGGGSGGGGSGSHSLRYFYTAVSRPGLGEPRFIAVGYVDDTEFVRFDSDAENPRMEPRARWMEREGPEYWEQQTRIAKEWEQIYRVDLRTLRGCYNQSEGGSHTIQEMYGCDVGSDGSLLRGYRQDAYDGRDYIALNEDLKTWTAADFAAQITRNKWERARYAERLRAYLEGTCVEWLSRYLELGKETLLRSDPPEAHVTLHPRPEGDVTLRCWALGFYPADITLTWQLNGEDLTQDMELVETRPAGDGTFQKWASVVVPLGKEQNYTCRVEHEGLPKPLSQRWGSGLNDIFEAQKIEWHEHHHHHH
The description is as above.

For assay [3], the target named is T4, recombinant single-chain HLA-G monomer/human HLA-G β2M MHC class I complex (human).
T4 construct: also called wt-HLA-G complex; wt-HLA-G antigen
Kind of assay: SPR multi cycle kinetics (Biacore T200, 25 C); antibody captured via Fc on CM3 chip, HLA-G complex as analyte.

For assay [4], the target named is T4, recombinant single-chain HLA-G …. Kind of assay: SPR single cycle kinetics (Biacore T200, 25 C); antibody captured via Fc on CM3 chip, HLA-G complex as analyte.
Assay [5] has the same target. In words: SPR relative active concentration; after 13 days His pH 6.0 at 40 C.
Assay [6] concerns the target T5, human HLA-G expressed on cells (JEG3 cells, natural; SKOV3 cells transfected with recombinant HLA-G) (human, UniProt P17693 25-338).
T5 construct: also called SKOV3 HLA-G
Kind of assay: flow cytometry on SKOV3 HLA-G cells (SKOV3 transfected with HLA-G); antibody at 2 µg/ml per legend paragraph 51 (10 µg/ml per paragraph 491); detection with goat anti-human IgG (H+L) Alexa 488.

Assay [7] has as its target T5, human HLA-G expressed on cells (JEG3 …). Kind of assay: flow cytometry; JEG3 cells pre-incubated with antibody, competitor ILT2-c-Myc-Fc at 10 ug/ml.
Assay [8] has the same target. Kind of assay: flow cytometry on JEG3 cells (natural HLA-G); antibody at 2 µg/ml per legend paragraph 51 (10 µg/ml per paragraph 491); detection with goat anti-human IgG (H+L) Alexa 488.
Assay [9] addresses T4, recombinant single-chain HLA-G …. Kind of assay: SPR relative active concentration; Ref. (frozen at -80 C).
The target is the same in assay [10]. In words: SPR relative active concentration; after 13 days PBS pH 7.4 at 37 C.
The target is the same in assay [11]. In words: SPR multi cycle kinetics.

T1 sequence (P07766 23-207 limits assumed): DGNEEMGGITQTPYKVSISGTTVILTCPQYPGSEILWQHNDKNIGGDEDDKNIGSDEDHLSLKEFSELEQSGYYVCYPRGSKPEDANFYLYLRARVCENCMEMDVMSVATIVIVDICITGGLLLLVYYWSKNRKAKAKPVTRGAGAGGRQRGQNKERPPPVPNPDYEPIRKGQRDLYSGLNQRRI

B1: P035-093 (P035) human IgG1 PGLALA (antibody, V domains shown)
VH: EVQLLESGGGLVQPGGSLRLSCAASGFTFSSYAMNWVRQAPGKGLEWVSRIRSKYNNYATYYADSVKGRFTISRDDSKNTLYLQMNSLRAEDTAVYYCVRASNFPASYVSYFAYWGQGTLVTVSS
VL: QAVVTQEPSLTVSPGGTVTLTCGSSTGAVTTSNYANWVQEKPGQAFRGLIGGTNKRAPGTPARFSGSLLGGKAALTLSGAQPEDEAEYYCALWYSNLWVFGGGTKLTVLR
Regarding B1, the “EC50 (read off the curve)” value in assay [1] is approximately 0.5 nM.

B2: CD3orig human IgG1 PGLALA (antibody, V domains shown)
VH: not shown
VL: B1 VL
notes: Human IgG1 format with P329G L234A L235A mutations in the Fc region
Consider B2, for which the “EC50 (read off the curve)” value in [1] was approximately 0.8 nM.

B3: HLA-G-0090-VL-S32P (antibody, IgG1, V domains shown)
VH: QVQLQQSGPGLLKPSQTLSLTCAISGDSVSSNRAAWNWIRQSPSRGLEWLGRTYYRSKWYNDYAVSVQGRITLIPDTSKNQFSLRLNSVTPEDTAVYYCASVRAVAPFDYWGQGVLVTVSS
VL: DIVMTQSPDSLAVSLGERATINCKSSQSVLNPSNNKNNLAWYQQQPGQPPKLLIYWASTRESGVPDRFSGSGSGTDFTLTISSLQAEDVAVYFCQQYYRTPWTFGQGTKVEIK
notes: also called HLA-G-0090-S32P
As to B3, the binding result (in assay [2]; with rat RT1 (SEQ ID NO: 43)) was “no binding” throughout. For the same molecule, the Kd in assay [3] stood at 1.2 nM; in [4], 1 nM. The values for the koff in [3] and in [4] were 0.00157 s⁻¹ and 0.00124 s⁻¹, respectively. For the same molecule, the figures for the kon in [3] and in assay [4] were 1.27e+06 M⁻¹ s⁻¹ and 1.19e+06 M⁻¹ s⁻¹, respectively. Besides, the t½ was 7.34 min in assay [3] and 9.29 min in [4]. In addition, the “relative HLA-G binding signal compared to Ref (as 100%), by SPR RAC” value amounted to 99% in assay [5], 100% in [9] and 98% in [10]. Further, the MFI in assay [6] worked out at 13900; in [8], 6330. Moreover, in [7], the “inhibition of ILT2 binding to Jeg3 cells” value came to 72%.

B4: HLA-G-0090-VL-S33D (antibody, IgG1, V domains shown)
VH: B3 VH
VL: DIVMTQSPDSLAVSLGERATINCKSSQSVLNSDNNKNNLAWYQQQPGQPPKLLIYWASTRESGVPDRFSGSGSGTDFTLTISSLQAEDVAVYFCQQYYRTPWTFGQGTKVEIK
notes: also called HLA-G-0090-S33D
For B4, in [3], the Kd came to 7.4 nM, the koff is 0.00667 s⁻¹, the kon was found to be 897000 M⁻¹ s⁻¹ and the t½ was 1.73 min. Further, in assay [4], the Kd was determined as 4.8 nM, the koff came out at 0.00344 s⁻¹, the kon was found to be 717000 M⁻¹ s⁻¹ and the t½ is 3.36 min. Moreover, the “factor of loss of binding affinity compared to HLA-G-0090” value in assay [11] was found to be 5 fold.

B5: HLA-G-0090-VL-S33A (antibody, IgG1, V domains shown)
VH: B3 VH
VL: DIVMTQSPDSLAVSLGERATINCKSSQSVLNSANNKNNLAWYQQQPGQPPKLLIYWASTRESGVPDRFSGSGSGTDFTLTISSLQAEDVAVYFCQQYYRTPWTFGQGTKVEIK
notes: also called HLA-G-0090-S33A
Consider B5, for which the binding result (in assay [2]; in the assay with rat RT1 (SEQ ID NO: 43)) was “no binding” throughout. Moreover, the Kd in assay [3] is 1.2 nM; in assay [4], 1 nM. Also, the figures for the koff in [3] and in assay [4] were 0.00149 s⁻¹ and 0.00124 s⁻¹, respectively. For the same molecule, the kon in assay [3] and in assay [4] was 1.24e+06 M⁻¹ s⁻¹ in each case. Further, the t½ in assay [3] is 7.76 min; in assay [4], 9.3 min. Also, the “relative HLA-G binding signal compared to Ref (as 100%), by SPR RAC” value in assay [5] was found to be 99%; in assay [9], 100%; in assay [10], 96%. Further, the MFI worked out at 14300 in assay [6] and 6380 in [8]. Moreover, the “inhibition of ILT2 binding to Jeg3 cells” value in assay [7] was 72%.

B6: HLA-G-0090-VL-S33P (antibody, IgG1, V domains shown)
VH: B3 VH
VL: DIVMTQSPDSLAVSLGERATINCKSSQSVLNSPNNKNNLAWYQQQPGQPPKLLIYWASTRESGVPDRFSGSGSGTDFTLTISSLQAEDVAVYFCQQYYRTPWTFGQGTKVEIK
notes: also called HLA-G-0090-S33P
As to B6, in assay [3], the dissociation constant Kd was 2.7 nM, the koff was 0.00368 s⁻¹, the association rate constant (kon) was 1.36e+06 M⁻¹ s⁻¹ and the t½ was determined as 3.13 min. Besides, in [4], the Kd was 1.8 nM, the koff is 0.00236 s⁻¹, the kon came out at 1.34e+06 M⁻¹ s⁻¹ and the t½ amounted to 4.91 min. Further, in assay [11], the “factor of loss of binding affinity compared to HLA-G-0090” value stood at 2 fold.
